Test [1] has as its target full-length KIF5B-GFP with C-terminal Strep-tag (human) (UniProt P33176).
Test [2] deals with K560-GFP with C-terminal Strep-tag, purified (human) (UniProt P33176).

A value given as a limit tells only on which side of the number the result lay.

Chain of Alexa Fluor 647–labeled SNAP-tag-MAP7, full length (Q14244 whole entry): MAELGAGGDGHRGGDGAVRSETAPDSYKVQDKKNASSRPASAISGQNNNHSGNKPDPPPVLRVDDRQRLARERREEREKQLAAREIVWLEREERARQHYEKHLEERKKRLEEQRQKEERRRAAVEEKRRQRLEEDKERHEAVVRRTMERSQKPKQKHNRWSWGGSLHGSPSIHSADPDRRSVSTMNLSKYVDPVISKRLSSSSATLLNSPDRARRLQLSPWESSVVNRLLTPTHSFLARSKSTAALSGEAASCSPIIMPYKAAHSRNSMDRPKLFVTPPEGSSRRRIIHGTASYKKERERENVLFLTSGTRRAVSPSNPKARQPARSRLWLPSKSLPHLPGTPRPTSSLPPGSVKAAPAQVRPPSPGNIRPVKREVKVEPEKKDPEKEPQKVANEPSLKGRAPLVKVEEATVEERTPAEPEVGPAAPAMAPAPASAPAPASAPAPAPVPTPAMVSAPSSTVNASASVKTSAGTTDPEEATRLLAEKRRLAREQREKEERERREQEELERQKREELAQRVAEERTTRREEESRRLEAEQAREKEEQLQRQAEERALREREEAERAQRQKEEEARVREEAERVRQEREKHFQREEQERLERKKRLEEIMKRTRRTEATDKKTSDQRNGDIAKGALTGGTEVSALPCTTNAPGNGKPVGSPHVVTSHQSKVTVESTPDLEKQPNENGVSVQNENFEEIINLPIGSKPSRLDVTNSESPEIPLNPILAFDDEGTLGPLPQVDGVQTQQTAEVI
Chain of full-length KIF5B-GFP with C-terminal Strep-tag (human) (P33176 whole entry): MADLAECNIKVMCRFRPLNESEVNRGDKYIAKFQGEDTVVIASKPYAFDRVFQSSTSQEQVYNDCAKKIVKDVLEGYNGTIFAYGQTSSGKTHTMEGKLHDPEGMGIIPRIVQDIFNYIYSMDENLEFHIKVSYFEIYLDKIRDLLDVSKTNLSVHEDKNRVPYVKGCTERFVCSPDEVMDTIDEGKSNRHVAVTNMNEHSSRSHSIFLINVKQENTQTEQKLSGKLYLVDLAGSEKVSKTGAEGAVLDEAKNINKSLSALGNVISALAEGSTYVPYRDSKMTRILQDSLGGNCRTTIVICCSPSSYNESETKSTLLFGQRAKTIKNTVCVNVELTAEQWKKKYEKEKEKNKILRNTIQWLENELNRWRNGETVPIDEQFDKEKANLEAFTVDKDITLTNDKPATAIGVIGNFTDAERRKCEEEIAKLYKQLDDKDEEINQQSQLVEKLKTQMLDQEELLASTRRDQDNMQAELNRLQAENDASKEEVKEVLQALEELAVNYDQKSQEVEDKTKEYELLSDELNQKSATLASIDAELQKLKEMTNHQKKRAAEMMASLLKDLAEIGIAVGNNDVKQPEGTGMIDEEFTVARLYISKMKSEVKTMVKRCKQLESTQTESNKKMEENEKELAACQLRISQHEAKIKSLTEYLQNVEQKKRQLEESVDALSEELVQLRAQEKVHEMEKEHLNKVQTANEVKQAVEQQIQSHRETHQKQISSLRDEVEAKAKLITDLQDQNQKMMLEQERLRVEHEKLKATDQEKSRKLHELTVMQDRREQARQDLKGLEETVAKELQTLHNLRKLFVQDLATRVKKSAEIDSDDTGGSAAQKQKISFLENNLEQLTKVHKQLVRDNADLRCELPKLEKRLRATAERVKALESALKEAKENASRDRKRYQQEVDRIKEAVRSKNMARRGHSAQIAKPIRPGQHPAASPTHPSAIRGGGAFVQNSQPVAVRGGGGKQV
Chain of K560-GFP with C-terminal Strep-tag, purified (human) (P33176 1-560): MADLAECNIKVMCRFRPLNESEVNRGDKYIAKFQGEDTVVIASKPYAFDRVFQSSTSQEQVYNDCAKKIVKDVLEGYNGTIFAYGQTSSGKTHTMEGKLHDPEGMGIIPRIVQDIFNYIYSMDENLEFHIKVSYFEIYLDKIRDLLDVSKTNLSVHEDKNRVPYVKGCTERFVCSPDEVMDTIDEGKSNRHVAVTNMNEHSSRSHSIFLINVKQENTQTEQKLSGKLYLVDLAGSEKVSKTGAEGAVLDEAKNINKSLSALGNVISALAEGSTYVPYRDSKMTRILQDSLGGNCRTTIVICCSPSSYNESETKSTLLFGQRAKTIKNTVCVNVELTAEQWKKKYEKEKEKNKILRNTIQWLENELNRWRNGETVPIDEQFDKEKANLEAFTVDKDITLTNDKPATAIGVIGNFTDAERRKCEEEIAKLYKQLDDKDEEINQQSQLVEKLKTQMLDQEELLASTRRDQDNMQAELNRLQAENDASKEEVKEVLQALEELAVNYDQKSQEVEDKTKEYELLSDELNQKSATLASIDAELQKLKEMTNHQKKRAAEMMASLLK

For the substance “Alexa Fluor 647–labeled SNAP-tag-MAP7, full length (from UniProt Q14244 1-749) (natural protein)”, in test [1], the events of full-length KIF5B-GFP on dynamic MTs in vitro (short binding events and landing followed by processive movement), with MAP against kinesin alone was more than 60 fold; the run length of full-length KIF5B-GFP on dynamic MTs in vitro, with MAP against kinesin alone was 1.6 fold. Further, in test [2], the landing frequency of K560-GFP on MAP-decorated dynamic MTs in vitro, increasing MAP concentrations, against K560 alone was less than 23.6 fold and the processivity (run length) of K560-GFP on dynamic MTs in vitro worked out at 2 fold.

Source of the values: PMC6446838.
